The values below come from patent US20240400689A1.

Values joined by “and” are separate entries in the source; they are usually repeats but may differ in a detail not shown here. Identical values can stand only once.

Assay [1] has as its target human CD276 protein (human) (UniProt Q5ZPR3). The assay can be described thus: cell-based or functional assay.
For assay [2] the target is unchanged. The assay can be described thus: FACS on SKOV3 cells.

Sequence of human CD276 protein (human) (Q5ZPR3 29-534): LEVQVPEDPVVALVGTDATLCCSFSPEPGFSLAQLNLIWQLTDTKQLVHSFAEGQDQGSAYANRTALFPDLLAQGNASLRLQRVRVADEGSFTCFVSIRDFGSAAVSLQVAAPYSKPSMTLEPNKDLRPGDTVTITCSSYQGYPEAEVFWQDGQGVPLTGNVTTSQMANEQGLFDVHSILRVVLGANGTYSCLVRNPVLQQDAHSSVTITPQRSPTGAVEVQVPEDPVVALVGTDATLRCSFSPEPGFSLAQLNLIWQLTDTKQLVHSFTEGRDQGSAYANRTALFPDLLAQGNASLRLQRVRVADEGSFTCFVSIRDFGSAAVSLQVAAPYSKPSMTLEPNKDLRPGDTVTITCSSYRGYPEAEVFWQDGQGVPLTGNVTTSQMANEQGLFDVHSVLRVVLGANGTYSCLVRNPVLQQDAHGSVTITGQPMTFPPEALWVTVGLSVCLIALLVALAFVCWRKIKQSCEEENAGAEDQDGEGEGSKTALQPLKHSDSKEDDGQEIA

Turning to MGA271-WT Fc (antibody), in assay [1], the EC50 of antibody induced CDC effect is 8.91 nM and 9.64 nM; the Top cytotoxicity (%), CDC was 19.6% and 19.8%.

The substance igG (antibody) displayed an MFI (Max) in assay [2] of 115.
